Patent publication US11034736B2, “Anti-viral cnidarins” (priority 2014, dated 2021)

Assays:
HIV-1HXB2 gp41 = HIV-1HXB2 gp41 (Human immunodeficiency virus type 1 group M subtype B, UniProt P04578); settings: ELISA, 100 ng/well gp41
Description: High protein binding Greiner 96-well plates (VWR, Bridgeport, N.J.) were coated with 1 pmol/well of recombinant HIV-1IIIIB gp120 (Immuno Diagnostics, Woburn, Mass.) or recombinant HIV-1HXB2 gp41 (Vybion Inc., Ithaca, N.Y.) at 4° C. overnight. The wells were emptied and then blocked with 200 μl/well of 3% non-fat dry milk (Bio-Rad, Hercules, Calif.) blocking solution for 2 hrs. A control plate was incubated with blocking solution only. After washing three times with PBST, 0.5-log10 serial dilutions of rCNID-1-Trx were added to triplicate wells of gp120−, gp41− and the blocking solution control plate, and the plates were incubated for 2 hrs. The plates were washed with PBST and 100 W/well of a 1:250 dilution of polyclonal rabbit anti-CNID-1 antibody was added and allowed to incubate for 1 hr, followed by three washes with PBST. Goat anti-rabbit (H+L), peroxidase conjugated secondary antibody (Thermo Fisher Scientific Inc., Rockford, Ill.) was added to each well (100 μl/well of a 1:1000 dilution) and further incubated for 1 hr, followed by three washes with PBST. The TMB 2-component Microwell peroxidase substrate kit (KPL Inc., Gaithersburg, Md.) was used for peroxidase detection: 100 W/well, incubation for 5-10 min and the reaction was stopped by addition of 0.5M HCl (100 W/well) before reading the absorbance at 450 nm.

human PBMCs = assay: Toxicity in PHA-stimulated human PBMCs, XTT cell viability; settings: human PBMCs, XTT, 7 days
Description: The cultures were incubated for 7 days at 37° C./5% CO2. Efficacy of the compounds was evaluated by measuring the amount of reverse transcriptase in the culture supernatant and toxicity was evaluated using XTT to measure cell viability. AZT was evaluated in parallel as an assay control.

Macrophage = assay: Cell viability of monocyte/macrophage cultures (CellTiter formazan dye reduction); format: cell-based, human; settings: macrophages
Source text: (§1) To test the anti-HIV activity of CNID1 against HIV primary isolates in fresh human cells, monocyte-tropic HIV-1 strain Ba-L was obtained from the NIAID AIDS Research and Reference Reagent Program (National Institutes of Health, Bethesda, Md.). The low passage HIV-1 pediatric isolate ROJO was derived as described previously (Buckheit et al., AIDS Res. Hum. Retroviruses, 10: 1497-1506 (1994)). Human peripheral blood mononuclear cells (PBMCs) and macrophages were isolated from hepatitis and HIV seronegative donors following Ficoll-Paque centrifugation as described elsewhere (Gartner & Popovic, Techniques in HIV Research, Aldovini, A. and Walker B., eds., pp. 59-63, Stockton Press, New York, 1990). Antiviral assays were carried out with 3-day-old phytohaemagglutinin/interleukin-2 stimulated PBMCs or 6-day-cultured monocyte/macrophages. […] HIV-1 replication in PBMC (ROJO) or monocyte macrophage (Ba-L) cultures were determined by measurement of reverse transcriptase activity (Buckheit et al., Antiviral Res., 21: 247-265 (1993)) in the supernatants or p24 antigen expression by ELISA (Coulter, Hialeah, Fla.), respectively. Cell viability by formazan dye reduction was determined in replicated cultures using the CellTiter reagent (Promega, Madison, Wis.). […]

HIV-1ROJO = assay: HIV-1 ROJO replication in human PBMC cultures, supernatant reverse transcriptase activity; format: cell-based; settings: T-tropic primary isolate
Source text: as §1

PBMC = assay: Cell viability of PBMC cultures (CellTiter formazan dye reduction); format: cell-based, human
Source text: as §1

HIV-1Ba-L = assay: HIV-1 Ba-L replication in human primary macrophage cultures, p24 ELISA; format: cell-based; settings: M-tropic, human primary macrophages
Source text: as §1

HIV-1HXB2 gp41, sequence (P04578 512-856): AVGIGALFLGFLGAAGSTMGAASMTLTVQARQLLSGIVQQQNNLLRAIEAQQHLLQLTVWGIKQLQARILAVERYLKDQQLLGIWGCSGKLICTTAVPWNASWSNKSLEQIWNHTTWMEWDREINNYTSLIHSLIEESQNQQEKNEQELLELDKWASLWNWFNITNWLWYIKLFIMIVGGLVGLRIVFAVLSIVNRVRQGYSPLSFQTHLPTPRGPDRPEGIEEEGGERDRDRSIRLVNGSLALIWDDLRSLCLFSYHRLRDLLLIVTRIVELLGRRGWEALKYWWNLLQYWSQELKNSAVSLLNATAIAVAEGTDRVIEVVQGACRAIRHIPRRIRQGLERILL

B1: CNID-1: HIV-inhibitory protein from soft coral Synthecium sp.; 172 amino acids, 18,122 Da, SEQ ID NO: 1 (protein)
chain: GRATLGQLKTSTIPPVTFDVPFDGANIPQDVRFTIATVNGGKGALYNAELGESAGHTIVLESDGDHPIPGTFDPKSGRGLDYLPRGLVLFSSHNYVGNMKMYTEPDSDITADFPPGTPFGVSSAITGEGSAFQLNTGIDHTGEFEIIPPNTKRNLAGVFDNEIRSVSPTGGK
Binding to gp41 (HIV-1HXB2 gp41): not gp41 | TC50 (human PBMCs): >0.5 µg/mL | CC50 (Macrophage): 3.56 nM | EC50 (HIV-1ROJO): 3.97 nM | CC50 (PBMC): 144 nM | EC50 (HIV-1Ba-L): 1.05 nM
